Assay results as given in PMC10253590, “The Product of the Fission Yeast fhl1 Gene Binds to the HomolE Box and Activates In Vitro Transcription of Ribosomal Protein Genes”.

B1: HomolE probe (two tandem HomolE boxes) (dsDNA)
DNA 1: TTCGTTGAGGGTAGGGTTGAGGGTAGGGTTATGC
DNA 2: GCATAACCCTACCCTCAACCCTACCCTCAACGAA
B2: HE cold competitor (dsDNA)
DNA 1: TTCGTTGAGGGTAGGGTTGC
DNA 2: GCAACCCTACCCTCAACGAA
B3: mHE cold competitor (dsDNA)
DNA 1: TTCGTTGAGTGTAGTGTTGC
DNA 2: GCAACACTACACTCAACGAA
B4: HD (HomolD) cold competitor (dsDNA)
DNA 1: TGAAAACAGTCACATTTTAC
DNA 2: GTAAAATGTGACTGTTTTCA

How the values were obtained:
Fhl1 [1] = biological target: T1, Fhl1 (Schizosaccharomyces pombe, UniProt O14270 1-743); test: EMSA; 10 ng Fhl1; poly(dG-dC); 20 mM HEPES pH 7.9, 50 mM KCl, 10 mM MgCl2, 0.1 mM EDTA, 5% glycerol, 5 mM DTT, 0.1 mM PMSF, 5 ug acetylated BSA, 50 ng poly(dG-dC), no PEG; 5 min 25 C then 15; settings: protein: recombinant; tags: His tag (pET15b; Ni-NTA purified); label: 32P 5' end
T1 sequence: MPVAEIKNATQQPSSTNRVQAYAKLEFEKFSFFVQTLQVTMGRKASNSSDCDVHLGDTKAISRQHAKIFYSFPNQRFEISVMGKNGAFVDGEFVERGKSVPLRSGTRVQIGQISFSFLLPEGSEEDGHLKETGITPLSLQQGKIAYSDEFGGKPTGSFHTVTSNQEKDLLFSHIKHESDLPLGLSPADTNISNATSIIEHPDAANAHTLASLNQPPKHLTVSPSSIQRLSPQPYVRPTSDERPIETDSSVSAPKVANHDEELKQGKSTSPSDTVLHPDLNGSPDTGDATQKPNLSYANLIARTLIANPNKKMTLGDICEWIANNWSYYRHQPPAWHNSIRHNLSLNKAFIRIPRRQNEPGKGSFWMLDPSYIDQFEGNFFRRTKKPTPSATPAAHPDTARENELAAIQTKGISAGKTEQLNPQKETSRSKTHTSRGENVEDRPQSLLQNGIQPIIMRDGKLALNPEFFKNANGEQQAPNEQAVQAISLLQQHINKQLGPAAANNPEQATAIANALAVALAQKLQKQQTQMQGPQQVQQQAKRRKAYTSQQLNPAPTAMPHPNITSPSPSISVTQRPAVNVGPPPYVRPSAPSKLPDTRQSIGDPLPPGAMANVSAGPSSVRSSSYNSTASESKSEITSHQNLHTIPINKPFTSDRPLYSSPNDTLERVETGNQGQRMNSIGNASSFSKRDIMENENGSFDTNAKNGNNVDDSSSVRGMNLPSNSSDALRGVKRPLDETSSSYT

Fhl1 [2] = biological target: T1, Fhl1; test: competition; EMSA; 12.5, 25, 50 ng cold competitor vs N1 probe; 20 mM HEPES pH 7.9, 50 mM KCl, 10 mM MgCl2, 0.1 mM EDTA, 5% glycerol, 5 mM DTT, 0.1 mM PMSF, 5 ug acetylated BSA, 50 ng poly(dG-dC), no PEG; 5 min 25 C then 15; settings: protein: recombinant; tags: His tag (pET15b; Ni-NTA purified)
Fhl1 [3] = biological target: T1, Fhl1; test: competition; EMSA; 50 ng cold competitor vs N1 probe; 20 mM HEPES pH 7.9, 50 mM KCl, 10 mM MgCl2, 0.1 mM EDTA, 5% glycerol, 5 mM DTT, 0.1 mM PMSF, 5 ug acetylated BSA, 50 ng poly(dG-dC), no PEG; 5 min 25 C then 15; settings: protein: recombinant; tags: His tag (pET15b; Ni-NTA purified)

| Binder | binding result (Fhl1 [3]) | other results |
| --- | --- | --- |
| B1 |  | binding result (Fhl1 [1]): binds |
| B2 |  | binding result (Fhl1 [2]): binds |
| B3 | no binding |  |
| B4 | no binding |  |
